Source: paper PMC2151085 (PLoS Pathogens, 2007)

Assays:
[1] = biological target: ALV-A Env surface subunit (SU), wild type, on virus particles (avian leukosis virus-A (ALV-A)) (UniProt P0DTM4)
[2] = biological target: the molecule itself; assay: SDS-resistant oligomer by SDS-PAGE and immunoblot

Chain of ALV-A Env surface subunit (SU), wild type, on virus particles (avian leukosis virus-A (ALV-A)) (P0DTM4 63-401): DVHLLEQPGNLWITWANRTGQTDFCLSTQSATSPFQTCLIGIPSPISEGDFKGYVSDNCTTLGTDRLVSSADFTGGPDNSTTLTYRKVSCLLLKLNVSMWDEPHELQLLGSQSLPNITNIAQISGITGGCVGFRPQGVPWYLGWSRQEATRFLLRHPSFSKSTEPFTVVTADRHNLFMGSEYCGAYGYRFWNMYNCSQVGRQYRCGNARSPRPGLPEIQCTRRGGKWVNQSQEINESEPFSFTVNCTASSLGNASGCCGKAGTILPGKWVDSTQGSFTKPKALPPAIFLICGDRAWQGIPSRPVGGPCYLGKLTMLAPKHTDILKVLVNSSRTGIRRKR

Molecule	infection of 293-Tva cells by ALV-A particles exposed to PMB (10 mM) in the presence of sTva (10 uM) [1]	stoichiometry N [2]
sTva, a functional isoform of the ALV-A receptor lacking the transmembrane domain	> 99%	–
ALV-A Env transmembrane subunit (TM), on virus particles (natural protein) STSHLDDTCSDEVQLWGPTARIFASILAPGVARAQALREIERLACWSVKQANLTTSFLGDLLDDVTSIRHAVLQNRAAIDFLLLAHGHGCEDVAGMCCFNLSDHSESIQKKFQLMKEHVNKIGVDSDPIGSWLRGLFGGIGEWAVHLLKGLLLGLVVILLLVVCLPCLLQIVCGNIRKMINNSISYHTEYKKLQKACGQPESRIV	–	3
